Experimental findings from the RNAGym collection of RNA variant scans (doi:10.1073/pnas.2313332121) are described below.

The labels stand for the following.
B1: TPR t1 (parent)
chain: GACCAAUCUGCCCUCAGAGCUCGAGAACAUCUUCGGAUGCAGAGGAGGCAGGCUUCGGUGGCGCGAUAGCGCCAACGUCCUCAACCUCCAAUGCAUCCCACCACAUGAUGAUGCCUGAAGAGCCUUGGUUUUUUG

The data set covers variants of B1. Description: polymerase ribozyme fitness, log enrichment relative to wild type (log ratio); higher = more active; in vitro selection for triplet polymerase activity. The essentials: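 Input and output libraries were sequenced on Illumina after a single in vitro selection round, run in triplicate on PCR-built, transcribed mutant libraries of each subunit of a heterodimeric triplet polymerase ribozyme. Selection annealed libraries to a biotinylated primer, the partner subunit and triplets, incubated them frozen at −7 °C, then gel-excised extended constructs for streptavidin-bead capture and RT-PCR. Genotypes with ≥10 input reads and ≥1 read per output were kept. Fitness is the logarithm, taken in base 2, of genotype enrichment divided by wild-type enrichment, using inverse-variance-weighted replicate averages.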
On to GACCAAUCUGCCCUCAGAGCUCGAGAACAUCUUCGGAUGCAGAGGAGGCAGGCUUCGGUGGCGCGAUAGCGCCAACGUCCUCAACCUCCAAAGCAUCCCACCACAUGAUGAUCCCUGAAGAGCCUUGGUUUUUUG [U92A G113C], for which the “polymerase ribozyme fitness (log ratio)” value is -3.49. To GACCAAUCUGCCCUCAGAGCUCGAGAACAUCUUCGGAUGCAGAAGAGGUAGGCGUCGGUGGCGCGAUAGAGCCAACGUCCUCAACCUCCAAUGCAUCCCACCACAUGAUGAGGCCUGAAGAGCCUUGGUUUUUUG [G44A C49U U54G C70A U112G] belongs -6.09; to GACCAAUCUGCCCUCAGAGCUCGAGAACUUCUUCGGAUGCAGAUGAGGCAGGCUUCGGUAGCGCGAUAGCGCCAACGUCCUCAACCUCCAAUGCAUCCCACCACAUGAUGAUUCCUGGAGAGCCUUGGUUGUUUG [A29U G44U G60A G113U A118G U131G], -5.8. To GACCAAUCUGCCCUCAGAGCUCGAGAUCAUCUUCGGAUGCAGAGGAGGCAGGCUUCGGUGGCGCGAUAGCGCCAACGUCCUCAACCUCCAAUGCAUCCCACCACAUGAUGAUGCCUGAAGAACCUUGGUUUUUUG [A27U G122A] belongs -4.26; to GACCAAUCUGCCCUCAGAGCUCGAGACCAUCUUCGGAUGCAGAGGAGGCAGGCUUCGGUGGCGCGAUAGCACCAACGUCCUCAACCUCCAAUGCAUCCCACCACAUGAUGAUGCCCGAAGAGCCUUGGUUUUUUG [A27C G71A U116C], -4.74; to GACCAAUCUGCCCUCAGAGCUCGAGAACAUCUUCGGAUGCAGAGGAGGCAGGCUUCGGUGGCGCGAUAGCCCCAACGUCCUCAGCCUCCAAUGCAUCCCACCACAUGAUGAUGCCUGAAGAGCCUUGGUUUUAUG [G71C A84G U133A], -3.86. As for GACCAAUCUGCCCUCAGAGCUCGAGAACAUCUUCGGAUGCAGAGGAGUCAGGCUUCGGGGGCGCGAUAGCGUCAACGUCCUCAACCUCCAAUGGAUCCCACCACAUGAUGAUGCCUGAAGAGCCUUGGUUUUUUG [G48U U59G C72U C94G], the “polymerase ribozyme fitness (log ratio)” value is -1.86. To GACCAAUCUGCCCUCAGAGCUCGAGAACAUCUUCGGAUGCAGAGGAGGCAGGCUUCGGUGGCGCGAUAGCGCCAACGUCCUUAACCUCCAAUCCAUCCCACCACAUGAUGAUGCCUUAAGAGCCUUGGUUUUUUG [C82U G93C G117U] belongs -2.53; to GACCAAUCUGCCCUCAGAGCUCGAGAACAUCUUCGGAUGCAGAGGAGGCAGGCUAGGGUGGCGCGAUAGCGCCAACGUCCUCAACCUCUAAUGCAUCCCACCACAUGAUGAUGCCUGAAGAGCAUUGGUUUUUUG [U55A C56G C89U C124A], 0.651; to GACCAAUCUGCGCUCAGAGCUCGAGAACAUCUUCGGAUGCAGAGUAGGCAGGCUUCGGUGGCGCGAUAGCGACAACGUCCUCAACCUCCAAUGCAUCCCACCACAUGAUGAUGCCUGAAGAGCCUUAGUUUUUUG [C12G G45U C72A G127A], -2.17. To GACCAAUCUGCCCUCAGAGCUCGAGAACAUCUUCGGAUGCAGAGGAGGCAGGCUUCGGUGGCGCGAUAGCGCCCACGUCCUCAACCUCCAAUGCAUCCCACCACAUGAUCAUGCCUGAAGAGCCUUGGUUUUUUG [A74C G110C] belongs -4.36.

Consider GACCAAUCUGCCCUCAGAGAUCGAGAACAUCUUCGGGUGCAGAGGAGGAAGGCUUCGGUGGCACGAUAGCGCCAACGUCCUCAACCUCCAAUGCAUCCCACCACAUGAUGAUGCCUGAAGAGCCUUGGUUUUUUG [C20A A37G C49A G63A], for which the “polymerase ribozyme fitness (log ratio)” value was -4.85. On to GACCAAUCUGCCCUCCGAGCUCGAGAACAUCUUCGGAUGCAGAGGAGGCAGGCUUCGGUCGCGCGAUAGCGCCAACGUCCUCAACCUCCAAUGCAUCCCACCACAUGAUGGUGCCUGAAGAGCCUUGGUUUUUUG [A16C G60C A111G], for which the “polymerase ribozyme fitness (log ratio)” value is -1.81. The same measure for GACCAAUCUGCCCUCAGAGCUCGAGAAUAUCUUCGGCUGCAGAGGAGGCAGGCUUCGGUGGCGCGAUAGCGCCAAGGUCCUCAACCUCCAAUGCAUCCCACCACAUGAUGAUGCCUGAAGAGCCUUGGUUUUUUG [C28U A37C C76G]: -3.54. Regarding GACCAAUCUGCCCUCAGAGCUCGAGAACAUCUUCGGUUGCAGAGGAUGCAGGCCUCGGUGGCGCGAUAGCGCCAACGGCCUCAAUCUCCAAUGCAUCCCACCACAUGAUGAUGCCUGAUGAGCCUUGGUUUUUUG [A37U G47U U54C U78G C85U A119U], the “polymerase ribozyme fitness (log ratio)” value is -3.1. The same measure for GACCAAUCUGCCCUCAGAGCUCGAGAACAUCUUCGGAUGCAGAGGAGGCAGGCUUCGGUGGCGCGAUAGCUCCAACGUCCUAAACCUCCAAUGCAUCCCACCACAUGAUGAUGCCAGAAGAGCCUUGGUUUUUUG [G71U C82A U116A]: -4.01.

As to GACCAACCUGCCCUCAGAGCUCGAGAUCAUCUUCGGAUGCAGAGGAGGCAGGCUUCGGUGGCGCGAUAGCGCCAACGUUCUCAACCUCCAAUGCAUCCCACCACAUGAUGAUGCCUGAAGAGCCUUGGUUUUUUG [U7C A27U C79U], the “polymerase ribozyme fitness (log ratio)” value was -3.22. As for GACCAAUCUGCCCUCAGAGCUCGAGAACAUCUUCGGAUGCAGAGGAGGCAGGUUUCGGUGGCGCGAUAGCGCCAACGUCCUCAACCUCCAAUGCAUCCUACCACAUGAUGAUGCCUGAAGAGCCUUGGUUUUUUG [C53U C99U], the “polymerase ribozyme fitness (log ratio)” value is -2.93. Take GACCAAUCUGCCCUCAGAGCUCGAGAACAUCUUCGGAUGCAGGGGAGGCAGGCUUCGGUGGCGCGGUAGCGCCAACGUCCUCAACCUCCAAUGCAUCCCACCACAUGAUGAUGCCUGAAGAGCCUUGGUUUUUUG [A43G A66G]: the “polymerase ribozyme fitness (log ratio)” value was -4.35. To GACCAAUCUGCCUUCAGAGCUCGAGAACAUCUUCGGAUGCAGAGGAGGCAGGCUUCGGUGGCGCGAUAGCGCCAACGUCCUCAACCUCCAAUGCAUCCCACCACAUGAUGAUGCAUGAAGAGCCUUGGUUUUUUG [C13U C115A] belongs -0.378; to GACCAAUGUGCCCUCAGAGCUCGAGAACAUCUUCGGAUGCAGAGGAGACAGGCUUCGGUGGCGCGAUAGCGCCAACGUCCUCAACCUCCAAUGCAUCCCACCACAUGAUGAUGCCUGAACAGCCCUGGUUUUUUG [C8G G48A G120C U125C], 1.03.
